# Reference: IntAct's records for PubMed 17855368
# B1: DNA-binding protein inhibitor ID-1 (Homo sapiens), P41134 (parent)
# chain: MKVASGSTATAAAGPSCALKAGKTASGAGEVVRCLSEQSVAISRCAGGAGARLPALLDEQQVNVLLYDMNGCYSRLKELVPTLPQNRKVSKVEILQHVIDYIRDLQLELNSESEVGTPGGRGLPVRAPLSTLNGEISALTAEAACVPADDRILCR
# Variants of: B1
# Details: with cav1_human CAV1, Q03135
# Sequence of cav1_human CAV1, Q03135 (Q03135 whole entry): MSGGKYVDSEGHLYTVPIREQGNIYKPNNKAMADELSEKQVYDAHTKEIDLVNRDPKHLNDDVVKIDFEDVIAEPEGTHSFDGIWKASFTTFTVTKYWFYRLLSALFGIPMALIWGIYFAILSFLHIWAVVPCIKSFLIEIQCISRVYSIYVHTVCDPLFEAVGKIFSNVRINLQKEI
row,effect of a mutation on the interaction,Variant
1,decreasing interaction,Y101D
